Here are results for 11 molecules from US20040087498A1, “Modified factor VII” (Novo Nordisk Health Care AG, priority 1991, published 2004).

Read-outs that look alike come from different tables or passages of the source.

For data set [1], the target named is purified recombinant soluble tissue factor.
Data set [2] concerns the target cell-surface tissue factor on baboon smooth muscle cells (baboon).
The target of data set [3] is tissue factor preparation, saline extract of baboon brain (baboon).
The target in data set [4] is T1, cell-surface tissue factor on rat vascular smooth muscle cells (Rattus norvegicus, UniProt P42533).
T1 construct: endogenous in cells; host or cells: rat vascular smooth muscle cells
T1 sequence (P42533 29-295): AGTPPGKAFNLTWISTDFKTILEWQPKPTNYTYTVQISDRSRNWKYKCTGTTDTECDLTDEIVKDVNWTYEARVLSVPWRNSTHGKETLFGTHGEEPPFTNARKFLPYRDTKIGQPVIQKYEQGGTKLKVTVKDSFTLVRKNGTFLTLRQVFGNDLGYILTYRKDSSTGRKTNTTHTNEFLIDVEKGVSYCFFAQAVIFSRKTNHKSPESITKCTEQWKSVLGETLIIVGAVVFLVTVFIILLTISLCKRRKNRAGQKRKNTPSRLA
Put plainly: Factor Xa generation on rat smooth muscle cells (S-2222). The format is cell-based. The following applies: 10 nM Factor VIIa. As to the method: Vascular smooth muscle-cells were analyzed for the presence of cell-surface tissue factor by measuring the ability of the cells to stimulate the conversion of Factor X to Factor Xa using a chromogenic substrate that is specific for Factor Xa.
Rat vascular smooth muscle cells (Clowes et al., J. Clin. Invest. 93:644-651 (1994)) were plated into 96-well culture dishes (American Scientific Products, Chicago, Ill.) at 8,000 cells per well in growth media (Table 4).
After a 48 hour incubation at 37° C. the medium was changed to serum free medium (Table 5).
The cells were incubated 72 hours at 37° C. After incubation, either PDGF-BB (10 ng/ml) or 10% fetal calf serum was added to the cells to stimulate tissue factor expression (Taubman et al., J. Clin. Invest, 21:547-552, 1993). A parallel set of cells received neither PDGF nor serum to monitor for intrinsic activity of unstimulated cells. […] The cells were incubated for 2 hours at 37° C. and washed with HEPES buffer (10 mM HEPES, 137 mM NaCl, 4 mM KCl, 5 mM CaCl2, 11 mM glucose, 0.1% BSA). After washing, cells were incubated for 5 min with 50 μl per well of 200 nM plasma-purified human Factor X in a Tris-buffered saline supplemented with 5 mM CaCl2. Twenty-five microliters of 0.5 M EDTA and 25 μl of an 800 μM solution of S-2222 chromogenic substrate (Kabi Pharmacia, Franklin, Ohio) were added to each well. The plates were incubated for 40 min at room temperature, then analyzed at 405 nm using a THERMOMAX microplate reader (Molecular Devices, Menlo Park, Calif.).

Data set [5] concerns the target T2, cell-surface tissue factor on rat smooth muscle cells (Rattus norvegicus, UniProt P42533).
T2 construct: endogenous in cells; host or cells: rat vascular smooth muscle cells
T2 sequence (P42533 29-295): T1 sequence (P42533 29-295)
Put plainly: Dose-dependent cell-surface chromogenic activity on rat smooth muscle cells. It counts as cell-based. As to the method:
Rat vascular smooth muscle cells were plated into 96-well culture dishes at 4,000 cells per well in growth medium supplemented with 1% fetal calf serum (as in Table 4 without 10% fetal calf serum). […] The cells were incubated with the Factor VII mixtures for 2 hours at 37° C. After incubation, the cells were washed and incubated with 50 μl of 200 nM Factor X in tris buffered saline for 5 minutes at room temperature. Each well had 25 μl of 0.5 M EDTA and 25 μl of […] S-2222 (Kabi Pharmacia) added to it, and the plates were incubated for 40 minutes at room temperature. Chromogenic activity was analyzed at 405 nm in a microplate reader as described above.

In data set [6] the target is T1, cell-surface tissue factor on rat vascular smooth muscle cells. Put plainly: Inhibition of cell-surface chromogenic activity by DEGR-Factor VIIa. As to conditions: 10 nM Factor VIIa; cells stimulated with 10% fetal calf serum. It counts as cell-based. As to the method: Rat vascular smooth muscle cells were plated into 96-well culture dishes as described above. The cells were cultured for 72 hours in serum free media as described above and treated with the addition of 10% fetal calf serum for 6 hours to stimulate tissue factor expression. […] The cells were incubated for 2 hours at 37° C., then washed with HEPES buffer. After washing, the cells were incubated for 5 minutes with […] per well of 200 nM Factor X in Tris-buffered saline supplemented with 5 mM CaCl2. Twenty-five microliters of 0.5 M EDTA and 25 μl of S-2222 (800 μM) chromogenic substrate (Kabi Pharmacia) were added to each well. The cells were incubated at room temperature for 40 minutes. Chromogenic activity was analyzed at 405 nm as described above.

Data set [7] relates to Factor VII-deficient plasma. Nature of the data set: One-stage clotting assay of coagulant activity. The format is biochemical, human. As to the method:
The ability of the modified Factor VII protein to inhibit clotting was measured in a one-stage clotting assay using wild-type Factor VII as a control. Recombinant proteins were prepared essentially as described above from cells cultured in media containing 5 μg/ml vitamin K. Varying amounts of the modified Factor VII (from clone 544) or recombinant wild-type Factor VII were diluted in 50 mM Tris pH 7.5, 0.1% BSA to 100 μl. The mixtures were incubated with 100 μl of Factor VII-deficient plasma (George King Bio-Medical Inc., Overland Park, Kans.) and 200 μl of thromboplastin C (Dade, Miami, Fla.; contains rabbit brain thromboplastin and 11.8 mM Ca^++). The clotting assay was performed in an automatic coagulation timer (MLA Electra 800, Medical Laboratory Automation Inc., Pleasantville, N.Y.), and clotting times were converted to units of Factor VII activity using a standard curve constructed with 1:5 to 1:640 dilutions of normal pooled human plasma (assumed to contain-one unit per ml Factor VII activity; prepared by pooling citrated […] from healthy donors). […] Factor VII activity is seen as a reduction in clotting time over control samples.

Data set [8] deals with T3, tissue factor (thromboplastin) (Oryctolagus cuniculus, UniProt P24055).
T3 construct: contains rabbit brain thromboplastin; purchased Dade, Miami, Fla. thromboplastin-C; host or cells: rabbit brain extract
T3 sequence (P24055 33-292): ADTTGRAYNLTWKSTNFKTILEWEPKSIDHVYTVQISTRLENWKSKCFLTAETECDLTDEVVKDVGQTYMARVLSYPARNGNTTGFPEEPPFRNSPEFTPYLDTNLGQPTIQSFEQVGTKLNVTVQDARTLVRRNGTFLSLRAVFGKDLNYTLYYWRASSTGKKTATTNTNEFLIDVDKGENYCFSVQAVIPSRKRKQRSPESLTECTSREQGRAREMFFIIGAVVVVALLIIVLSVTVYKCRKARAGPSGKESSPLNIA
Nature of the data set: One-step clotting mixing assay with a limiting amount of tissue factor. It counts as biochemical, rabbit. As to the method:
The ability of the modified Factor VII to compete with wild-type Factor VII for tissue factor and inhibit its clotting activity was assessed in a one-step clotting assay in the presence of a limiting amount of tissue factor (thromboplastin).
Clotting times were determined in a one-step assay similar to that described in Example II. A limited amount of tissue factor, a constant amount of wild type Factor VII, and increasing amounts of variant Factor VII were used in the mixing experiments. An inhibition of Factor VII/VIIa procoagulant activity would be seen as an increase in clotting time in assays containing increasing amounts of variant Factor VII.
The amount of Factor VII activity in the test samples was calculated as a percentage of a standard curve that measured Factor VII activity in normal pooled plasma. The standard curve for Factor VII activity was generated using serial dilutions of normal pooled plasma in phosphate buffered solution (PBS) that ranged from 1:5 to 1:640. For this purpose it was assumed that normal plasma contains approximately 500 ng/ml of Factor VII and this was considered to be one unit of activity. A mixture of 100 μl Factor VII-deficient plasma, 100 μl plasma dilution and 200 μl of thromboplastin-C (Dade, Miami, Fla.) was used to measure clotting time on a MLA Electra 800 automatic timer. To establish the standard curve, the results were graphed as percentage of activity (1:5=100% activity) versus clotting time in seconds.
The assay required that the medium containing the wild type and variant Factor VII be composed of less than one percent serum. The dilutions were made in PBS so that clotting times would fall along the standard curve. A minimum dilution of 1:2 was typical. The final volume was 100 μl. Two different human Factor VII Ser344→Ala variants, designated clones “#10” and “#6” were tested in the experiments.

The conditions of data set [9]: in vivo; cited from earlier work.
For data set [10], the target named is tissue factor (thromboplastin C, rabbit brain thromboplastin) (rabbit) (UniProt P24055).
Data set [11] has as its target T4, cell-surface tissue factor on rat vascular smooth muscle cells (rat) (UniProt P42533).
T4 sequence: T1 sequence (P42533 29-295)

Data set [12] addresses T4, cell-surface tissue factor on rat vascular smooth muscle cells (rat). The source holds these as a separate data set.
Data set [13] shares this target. This is another data set of the same source.
Data set [14] deals with purified recombinant soluble tissue factor. This is another data set of the same source.
The mark [15] stands for this setting: variant medium 10 μl + B4A1 (wild type) medium 10 μl.
[16] abbreviates: variant medium 20 μl + B4A1 (wild type) medium 10 μl.
The mark [17] stands for this setting: variant medium 30 μl + B4A1 (wild type) medium 10 μl.
[18] abbreviates: variant medium 40 μl + B4A1 (wild type) medium 10 μl.
[19] abbreviates: variant medium 50 μl + B4A1 (wild type) medium 10 μl.

For “DEGR-Factor VIIa (from UniProt P08709) (enzyme)”, the OD405 (Factor Xa chromogenic activity, S-2222) in [1] is 0.055 OD405. Moreover, the inhibition of Factor Xa chromogenic activity on baboon smooth muscle cells in data set [2] was greater than 90%. Moreover, the Clotting time in [3] is 158 s.

“Factor VIIa: Recombinant human Factor VIIa, activated two-chain form [reference compound]”: the OD405 result is on record as “.247” in data set [4] (Intrinsic (unstimulated cells)); “.342” in data set [4] (cells stimulated with 10% FCS); “.360” in [4] (cells stimulated with PDGF-BB (10 ng/ml)); “.058” in data set [5] (Factor VIIa 1.56 nM alone); “.111” in data set [5] (Factor VIIa 6.25 nM alone); “.154” in data set [5] (Factor VIIa 25.00 nM alone). Moreover, the OD405 result in data set [5] (Factor VIIa 100.00 nM alone) was “.208”; in data set [5] (Factor VIIa .10 nM alone) it was “.005”; in data set [5] (Factor VIIa .39 nM alone), “.025”; in data set [6], “.342”.

Turning to “Modified Factor VII (#6): human Factor VII Ser344→Ala variant, clone #6”, in data set [7] (dilution 1:1), the “Clotting time” value was 33.5 s. For the same molecule, the “Percent FVIIa Activity” value in [8] (setting [15]) is given as 74%; in data set [8] (setting [16]) it was 56%; in data set [8] (setting [17]), 46%; in data set [8] (setting [18]) it was 41%; in data set [8] (setting [19]) it was 32%.

Turning to “Modified Factor VII (#10): human Factor VII Ser344→Ala variant, clone #10”, in [7] (dilution 1:1), the “Clotting time” value was determined as 32.5 s. For the same molecule, the “Percent FVIIa Activity” value in [8] (setting [15]) worked out at 70%; in [8] (setting [16]), 51%; in [8] (setting [17]) it was 43%; in [8] (setting [18]), 34%; in data set [8] (setting [19]), 28%.

Consider “Wild-type Factor VII: recombinant wild-type Factor VII used as a control”, for which the “Clotting time” value in data set [7] (dilution 1:20) is 19.0 s; in data set [7] (dilution 1:40) it was 21.5 s; in [7] (dilution 1:80), 23.3 s.

Take heparin: in [9], the half-life entry is listed as “approximately 80 minutes”.

In data set [10], “human Factor VII Ser344→Ala variant (from UniProt P08709) (enzyme)” came in with a Percent FVIIa Activity of 28%.

Take “human Factor VII Ser344→Ala variant expressed without vitamin K (from UniProt P08709) (enzyme)”: the Percent FVIIa Activity in [10] was determined as 78%.

In the case of “recombinant human Factor VIIa (from UniProt P08709) (enzyme)”, the OD405 (Factor Xa chromogenic activity, S-2222) was determined as 0.342 OD405 in data set [11], 0.36 OD405 in data set [12], 0.208 OD405 in data set [13] and 0.79 OD405 in data set [14].

B1: #10 (−K): Ser344→Ala variant clone #10 expressed by cells grown without vitamin K (protein, UniProt P08709 1-466, looked up, variant S344A)
chain: MVSQALRLLCLLLGLQGCLAAGGVAKASGGETRDMPWKPGPHRVFVTQEEAHGVLHRRRRANAFLEELRPGSLERECKEEQCSFEEAREIFKDAERTKLFWISYSDGDQCASSPCQNGGSCKDQLQSYICFCLPAFEGRNCETHKDDQLICVNENGGCEQYCSDHTGTKRSCRCHEGYSLLADGVSCTPTVEYPCGKIPILEKRNASKPQGRIVGGKVCPKGECPWQVLLLVNGAQLCGGTLINTIWVVSAAHCFDKIKNWRNLIAVLGEHDLSEHDGDEQSRRVAQVIIPSTYVPGTTNHDIALLRLHQPVVLTDHVVPLCLPERTFSERTLAFVRFSLVSGWGQLLDRGATALELMVLNVPRLMTQDCLQQSRKVGDSPNITEYMFCAGYSDGSKDSCKGDAGGPHATHYRGTWYLTGIVSWGQGCATVGHFGVYTRVSQYIEWLQKLMRSEPRPGVLLRAPFP
modifications: expressed without vitamin K
notes: Ser344→Ala variant clone #10 expressed by cells grown without vitamin K
In the case of B1, in data set [8] (setting [16]), the “Percent FVIIa Activity” value is 78%.

B2: #6 (−K): Ser344→Ala variant clone #6 expressed by cells grown without vitamin K (protein, UniProt P08709 1-466, looked up, variant S344A)
chain: B1 chain
modifications: expressed without vitamin K
notes: Ser344→Ala variant clone #6 expressed by cells grown without vitamin K
As to B2, in data set [8] (setting [16]), the “Percent FVIIa Activity” value amounted to 85%.
